Reference: paper doi:10.1101/2022.01.26.477937 (bioRxiv, 2022)

B1: NCV2SG53 monoclonal antibody (human IgG) (antibody, V domains shown)
VH: QVQMVESGGGLVRPGGSLRLSCAASGFTFSDYYMSWIRQAPGKGLEWISYISSSGSSMNYADSVKGRFTISRDNAKNSLFLQMNSLRAEDTAVYYCAREFDLTKIIMVPPYWGQGTLVTVSS
VL: AIQLTQSPSSLSASVGDRVTITCRASQGISSYLAWYQQKPGKAPKVLIYAASTLQSGVPSRFSGSGSGTDFTLTISSLQPEDFATYYCQQLKSYPLTFGGGTKVEIT
B2: Fab fragment from NCV2SG48 (Fab, V domains shown)
VH: EVQLVESGGGLIQPGGSLRLSCAASGFIVSRNYMNWVRQAPGKGLEWVALIYSGGSTFYADSVKGRFTISRDNSKNTLYLQMNSLRAEDTAVYYCARDLVVYGLDYWGQGTLVTVSS
VL: AIQLTQSPSSLSASVGDRVTITCRASQGISSHLAWYQQKPGKAPKLLIFAASTLQSGVPSRFSGSGSGTDFTLTISSLQPEDFATYYCQHLNSNPPITFGQGTRLEIK
B3: Fab fragment of NCV2SG53 (Fab, V domains shown)
VH: QVQMVESGGGLVRPGGSLRLSCAASGFTFSDYYMSWIRQAPGKGLEWISYISSSGSSMNYADSVKGRFTISRDNAKNSLFLQMNSLRAEDTAVYYCAREFDLTKIIMVPPYWGQGTLVTVSS
VL: AIQLTQSPSSLSASVGDRVTITCRASQGISSYLAWYQQKPGKAPKVLIYAASTLQSGVPSRFSGSGSGTDFTLTISSLQPEDFATYYCQQLKSYPLTFGGGTKVEIT
B4: NCV2SG48 monoclonal antibody (human IgG) (antibody, V domains shown)
VH: EVQLVESGGGLIQPGGSLRLSCAASGFIVSRNYMNWVRQAPGKGLEWVALIYSGGSTFYADSVKGRFTISRDNSKNTLYLQMNSLRAEDTAVYYCARDLVVYGLDYWGQGTLVTVSS
VL: AIQLTQSPSSLSASVGDRVTITCRASQGISSHLAWYQQKPGKAPKLLIFAASTLQSGVPSRFSGSGSGTDFTLTISSLQPEDFATYYCQHLNSNPPITFGQGTRLEIK

Assays:
[1] = biological target: T1, SARS-CoV-2 Wuhan-Hu-1 spike receptor-binding domain (RBD) (SARS-CoV-2 Wuhan-Hu-1, UniProt P0DTC2); test: ELISA
[2] = biological target: T1, SARS-CoV-2 Wuhan-Hu-1 spike …; test: crystal structure
[3] = biological target: T1, SARS-CoV-2 Wuhan-Hu-1 spike …; test: BLI

| Binder | binding result [2] | also measured |
| --- | --- | --- |
| B1 | – | binding result [1]: binds |
| B2 | binds | – |
| B3 | binds | – |
| B4 | – | binding result [3]: binds |
